# Assays:
# [1] = molecular target: T1, human CD163 expressed on human myeloid cells (M2c macrophages, M2 macrophages, in vitro MDSCs) (human, UniProt Q86VB7 42-1114); experiment: flow cytometry, AF647-conjugated AB102 on polarized M2c macrophages without siRNA
# T1 construct: Endogenous CD163 on primary human monocyte-derived cells; also called huCD163; CD163^Hi cells
# Method: The macrophage detachment solution was replaced with cold PBS−/− (PBS without calcium and magnesium; Hyclone No. SH30028.02) containing 0.2 mM EDTA and 0.1% HSA. The cells were spun down at 650×g for 5 min and then resuspended in 0.5 mL cold Block solution (FACS buffer+10% NGS+10 μg of human IgG Fc fragment protein (Abcam No. ab90285)) per million cells. The cells were counted and an average of 1×10⁶ per mL was used for further calculations. The cells were incubated at RT for 15 min (to increase FcR binding), followed by a 30 min incubation on ice for full blocking. An aliquot of unstained cells was set aside for compensation controls. e780 viability dye (ThermoFisher eBioscience No. 65-0865-18) was added to the remainder at a final dilution of 1:1000. Cells were aliquoted into 96-well plates (40 μL per well), and 10 μL of antibody solution was added to each well. Antibodies were prepared with a starting concentration of 100 μg/mL in FACS buffer and serially diluted in FACS buffer. After addition of antibodies, each set of cells was tested with an antibody panel (AB101 in FcNull framework conjugated to AF647 and commercial anti-CD163 conjugated to BV421 [BioLegend No. 333612]) and an isotype panel (ISO2 in FcNull framework conjugated to AF647 and commercial mIgG1 conjugated to BV421). […] Cells were then analyzed by flow cytometry on a BD Canto II machine.
# [2] = molecular target: T2, His-tagged recombinant human CD163 (R&D Systems, No. 1607-CD-050) (human, UniProt Q86VB7 46-1050); experiment: ELISA, plate coated with 5 ug/mL His-tagged recombinant human CD163, HRP anti-human IgG F(ab')2, A450
# T2 construct: Bought protein; also called huCD163; not shown: His tag
# T2 sequence (Q86VB7 46-1050 limits assumed): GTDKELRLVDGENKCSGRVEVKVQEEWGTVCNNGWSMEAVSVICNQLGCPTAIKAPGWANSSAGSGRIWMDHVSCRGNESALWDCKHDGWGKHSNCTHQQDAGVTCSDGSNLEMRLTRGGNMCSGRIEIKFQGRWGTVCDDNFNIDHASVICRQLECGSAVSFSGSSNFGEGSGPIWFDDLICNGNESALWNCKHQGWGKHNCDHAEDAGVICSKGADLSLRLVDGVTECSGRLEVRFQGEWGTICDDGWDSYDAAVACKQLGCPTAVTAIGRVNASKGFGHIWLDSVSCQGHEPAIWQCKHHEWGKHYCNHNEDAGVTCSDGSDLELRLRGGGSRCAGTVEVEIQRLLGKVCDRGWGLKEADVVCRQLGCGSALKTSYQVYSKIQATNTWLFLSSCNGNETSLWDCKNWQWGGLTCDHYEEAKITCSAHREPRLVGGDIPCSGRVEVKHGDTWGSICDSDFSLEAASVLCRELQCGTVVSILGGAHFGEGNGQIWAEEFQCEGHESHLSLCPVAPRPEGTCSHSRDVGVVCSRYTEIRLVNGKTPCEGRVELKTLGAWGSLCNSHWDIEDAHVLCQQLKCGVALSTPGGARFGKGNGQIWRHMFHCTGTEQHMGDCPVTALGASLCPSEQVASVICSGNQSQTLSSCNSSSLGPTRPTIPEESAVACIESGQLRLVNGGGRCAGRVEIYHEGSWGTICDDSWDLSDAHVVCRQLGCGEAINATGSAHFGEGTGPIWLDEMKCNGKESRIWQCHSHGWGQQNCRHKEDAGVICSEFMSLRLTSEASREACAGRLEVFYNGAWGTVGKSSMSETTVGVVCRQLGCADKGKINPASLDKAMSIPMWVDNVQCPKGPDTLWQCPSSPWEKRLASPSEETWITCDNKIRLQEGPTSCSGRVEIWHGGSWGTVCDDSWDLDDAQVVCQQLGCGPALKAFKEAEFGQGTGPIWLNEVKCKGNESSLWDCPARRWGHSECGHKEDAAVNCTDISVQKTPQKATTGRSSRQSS
# Method: AB101 binding to His-tagged recombinant human CD163 (R&D Systems, No. 1607-CD-050) and recombinant murine CD163 (R&D Systems, No. 7435-CD-050) proteins was determined using ELISA. Recombinant proteins were diluted in PBS to 5 μg/mL and added to 384-well High binding ELISA plates (Greiner Bio-One, No. 781061) at 25 μL per well and incubated at 4° C. overnight. The plates were washed three times with PBS, using the BioTek ELx405 Select microplate washer (wash program ELISA_384_PBS_3×_wash) and then blocked with 90 μL/well of blocking buffer (2% nonfat, dry milk/PBS+0.05% Tween 20) for 1 hr at RT.
# After blocking, 25 μL per well of primary antibodies were added to the plates and incubated for 1 hr at room temp. The test antibody was AB101; the control anti-huCD163 antibody was a commercially available antibody in murine IgG1 framework (R&D Systems, #MAB1607); the isotype controls were a proprietary mAb, in human IgG1, human FcNull, and murine IgG1 frameworks, with known specificity. After primary antibody binding, plates were washed three times with PBS using the EL405× (wash program ELISA_384_PBS_3×_wash). […] After development, the reaction was stopped by adding 25 μL per well of 0.3 M HCl and plates were read using the SpectraMax M5e instrument at 450 nm.
# T1 sequence (Q86VB7 other isoform, or with tags, fused parts or gaps limits assumed): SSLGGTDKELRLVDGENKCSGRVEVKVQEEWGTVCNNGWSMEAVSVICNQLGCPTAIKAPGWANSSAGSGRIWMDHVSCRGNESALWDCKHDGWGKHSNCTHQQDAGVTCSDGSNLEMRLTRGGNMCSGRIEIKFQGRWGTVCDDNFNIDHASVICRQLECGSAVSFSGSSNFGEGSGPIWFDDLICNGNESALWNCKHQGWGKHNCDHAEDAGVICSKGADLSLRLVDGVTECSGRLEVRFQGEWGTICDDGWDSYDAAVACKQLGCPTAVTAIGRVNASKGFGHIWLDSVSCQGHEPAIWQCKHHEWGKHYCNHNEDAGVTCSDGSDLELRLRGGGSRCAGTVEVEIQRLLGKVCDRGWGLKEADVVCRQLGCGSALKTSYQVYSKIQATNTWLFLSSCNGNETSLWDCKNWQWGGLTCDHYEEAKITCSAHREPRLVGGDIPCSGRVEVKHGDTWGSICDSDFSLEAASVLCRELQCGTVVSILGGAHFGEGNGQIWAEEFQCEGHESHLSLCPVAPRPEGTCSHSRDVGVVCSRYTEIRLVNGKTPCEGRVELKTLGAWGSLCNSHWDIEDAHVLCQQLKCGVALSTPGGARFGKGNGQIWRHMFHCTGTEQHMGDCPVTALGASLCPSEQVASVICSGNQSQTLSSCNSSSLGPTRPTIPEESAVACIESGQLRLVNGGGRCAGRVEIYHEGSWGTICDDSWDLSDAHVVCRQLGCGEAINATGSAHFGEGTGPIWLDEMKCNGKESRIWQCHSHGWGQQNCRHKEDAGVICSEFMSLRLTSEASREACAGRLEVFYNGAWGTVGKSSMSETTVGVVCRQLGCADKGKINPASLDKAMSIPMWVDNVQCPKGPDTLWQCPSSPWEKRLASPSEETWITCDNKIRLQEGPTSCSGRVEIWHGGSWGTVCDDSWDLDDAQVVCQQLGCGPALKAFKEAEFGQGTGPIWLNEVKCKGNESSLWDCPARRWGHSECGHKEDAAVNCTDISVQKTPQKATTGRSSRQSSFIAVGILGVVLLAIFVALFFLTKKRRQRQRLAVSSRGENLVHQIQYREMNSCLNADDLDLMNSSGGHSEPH
binder,measurement,setting,value
"AB102 (antibody, human IgG1, kappa, Biotinylated for the PFA immunoprecipitation and AF647 conjugated for flow cytometry; also called AB101 FcNull antibody; AB101 in FcNull framework; copies: 2 + 2) light: not shown heavy: EVQLVESGGGVVQPGRSLRLSCAASGFTFSSYAMHWVRQAPGKGLEWVAVISYDGSNKYYADSVKGRFTISRDNSKNTLYLQMNSLRAEDTAVYYCARENVRPYYDFWSGYYSEYYYYGMDVWGQGTTVTVSSASTKGPSVFPLAPSSKSTSGGTAALGCLVKDYFPEPVTVSWNSGALTSGVHTFPAVLQSSGLYSLSSVVTVPSSSLGTQTYICNVNHKPSNTKVDKRVEPKSCDKTHTCPPCPAPEFEGGPSVFLFPPKPKDTLMISRTPEVTCVVVDVSHEDPEVKFNWYVDGVEVHNAKTKPREEQYNSTYRVVSVLTVLHQDWLNGKEYKCKVSNKALPASIEKTISKAKGQPREPQVYTLPPSREEMTKNQVSLTCLVKGFYPSDIAVEWESNGQPENNYKTTPPVLDSDGSFFLYSKLTVDKSRWQQGNVFSCSVMHEALHNHYTQKSLSLSPGK",EC50 (read off the curve),[1],~10 nM
same,EC50 (read off the curve),[2],~1 nM

# Source: US20210253733A1 (ONCORESPONSE, published 2021)
